Results published in paper PMC4575469.

Test system: TetR
Test: SPR
Conditions: streptavidin surface, promoters at 30-50 RU, TetR 4-62 nM, regeneration with 1 M NaCl and 1 M MgCl2, running buffer, pH and temperature not given in the …

Sequence	Kd
CGCGCGCCTTTCTGCGTTTATATACTAGAGTCCCTATCAGTGATAGAGATTGACATCCCTATCAGTGATAGATATAATGAGCACTACTAGAGTAGTGGAGGTTACTAGATGGTGAGCAAGGGCGAGGAGCTGTTCACCGGGGTGGTGCCCATCCTGCGCG (double strand) [L12 promoter]	8 nM
CGCGCGCCTTTCTGCGTTTATATACTAGAGTCCCTATCAGTGATAGAGATTGACATCCCTATCAGTGATAGATATAATGGGCACTACTAGAGTAGTGGAGGTTACTAGATGGTGAGCAAGGGCGAGGAGCTGTTCACCGGGGTGGTGCCCATCCTGCGCG (double strand) [L11 promoter]	6 nM
CGCGCGCCTTTCTGCGTTTATATACTAGAGTCCCTATCAGTGATAGAGATTGACATCCCTATCAGTGATAGATATAATGCGCACTACTAGAGTAGTGGAGGTTACTAGATGGTGAGCAAGGGCGAGGAGCTGTTCACCGGGGTGGTGCCCATCCTGCGCG (double strand) [L09 promoter]	6 nM
CGCGCGCCTTTCTGCGTTTATATACTAGAGTCCCTATCAGTGATAGAGATTGACATCCCTATCAGTGATAGATATAATGTGCACTACTAGAGTAGTGGAGGTTACTAGATGGTGAGCAAGGGCGAGGAGCTGTTCACCGGGGTGGTGCCCATCCTGCGCG (double strand) [L10 promoter]	5 nM
